Target: T1, CHAP domain of Streptococcus pneumoniae PcsB (residues A274-D392) (Streptococcus pneumoniae, UniProt Q8DMY4 274-392)
T1 sequence (looked up): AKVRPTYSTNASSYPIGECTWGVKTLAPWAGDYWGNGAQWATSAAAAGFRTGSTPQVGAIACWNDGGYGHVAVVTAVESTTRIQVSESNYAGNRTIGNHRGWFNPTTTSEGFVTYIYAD
Assay: SPR

AQKAA (D-isoglutamine at position 2 (iQ); D-alanine at positions 4 and 5) [synthetic pneumococcal stem pentapeptide L-Ala-D-isoGln-L-Lys-D-Ala-D-Ala]
fold change of KD against AEKADAD: ~15 fold

Reference: doi:10.1101/2025.05.23.655736 (bioRxiv, 2025)
